Experiment: label from the status in PepcDB records
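Note: failed if final PepcDB status was selected cloned or expressed and not failed if soluble or beyond.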

With “GYNRRFDAGFVAARAAVASGELGALHTVRSTTLDPAPPPPAYVAASGGIFRDCSVHDFDIIRWVTGREVVEVYATGGNRGADYIAAAGDADTTAAVLTLDDGTLAVVSNSRHNARGHDVRMELHGFRDSIAVGLEDRLPLRSVEPGTSFPAGTPHDFFMDRFAAAYRAELTAFTEVVAGRRPSPCTVADALEAGWIAEACTLSLHSHRPVTVEEVRRQS” the protein production was “failed”.
With “HARPAGQLKVHSMPGVGQHYVIDAIARYRRNHPDVAFDLTMTHRVPDLLEEGFDVSIVLASELADSGFVSQRLGITYSIVCASPEYVKTFGMAHKPADLLNHACLRLVSPVFP” the protein production was “failed”.
In the case of “HFNVLADTPSGLVPLHLRSPQVPAAQQMLNFPEKNKEKPVDLQNFGLRTDIYSKKTLAKSKGASAGREWTEQETLLLLEALEMYKDDWNKVSEHVGSRTQDECILHFLRLPIEDPYLENSDASLGPLAYQPVPFSQSGNPVMSTVAFLASVVDPRVASAAAKAALEEFSRVREEVPLELVEAHVKKVQEAARASGKVDPTYGLESSCIAGTGPDEPEKLEGAEEEKMEADPDGQQPEKAENKVENETDEGDKAQDGENEKNSEKEQDSEVSEDTKSEEKETEENKELTDTCKERESDTGKKKVEHEISEGNVATAAAAALASAATKAKHLAAVEERKIKSLVALLVETQMKKLEIKLRHFEELETIMDREKEALEQQRQQLLTERQNFHMEQLKYAELRARQQMEQQQHGQNPQQAHQHSGGPGLAPLGAAGHPGMMPHQQPPPYPLMHHQMPPPHPPQPGQIPGPGSMMPGQHMPGRMIPTVAANIHPSGSGPTPPGMPPMPGNILGPRVPLTAPNGMYPPPPQQQPPPPPPADGVPPPPAPGPPASAAP”, the protein production is reported as “not failed”.
For “HITLNYLSKTLGMHQTINVILPEDKSYFDTNENAKPLKTMLLLHGLSSDTSSYMRYTSIERYANTHQLAVVMPNADHSFYSNMAYGHSYYDYILEVYDYVHQILPLSKKREDNFIAGHSMGGYGAIKFALTQSYRFSKAAMLSAPYDVSMIGQYQWYDFTPEAIVGNTQHVAGTSFDPYYLVEQAIDNGQALPQLYITCGTEDELYQGNIDFVNYLDEKGIPYQFKKAPGNHDYAFWDKAIEDVIDRF”, the protein production was “failed”.
With “HPMCKEHEDEKINIYCLTCEVPTCSMCKVFGIHKACEVAPLQSVFQGQKTE” the protein production was “not failed”.
With “HQQQRSVMTEEYKVPDGMVGFIIGRGGEQISRIQQESGCKIQIAPDSGGLPERSCMLTGTPESVQSAKRLLDQIVEKGR” the protein production was “not failed”.
For “HTETGNIWTHLLGFVLFLFLGILTMLRPNMYFMAPLQEKVVFGMFFLGAVLCLSFSWLFHTVYCHSEKVSRTFSKLDYSGIALLIMGSFVPWLYYSFYCSPQPRLIYLSIVCVLGISAIIVAQWDRFATPKHRQTRAGVFLGLGLSGVVPTMHFTIAEGFVKATTVGQMGWFFLMAVMYITGAGLYAARIPERFFPGKFDIWFQSHQIFHVLVVAAAFVHFYGVSNLQEFRYGLEGGCTDDTLL”, the protein production was “failed”.
With “HYGEEPELVPSYTIFFSGCNFRCVFCQNWDISQFRVGVELLPEYLALKIERAYRFGARNVNFVGGEPTPNLPYILETLRYVNVPIPVVWNSNMYMSEEAMKLLDGIVD” the protein production was “failed”.
With “IAKNNYKELIQNIIEESYTDSQFTLSVLSEKLDLSSGYLSIMFKKNFGIPFQDYLLQKRMEKAKLLLLTTELKNYEIAEQVGFEDVNYFITKFKKYYQITPKQYREMVLKNE” the protein production was “failed”.
In the case of “IARLDWSATPLGESGHWPQSLRTAVDIVIHSPMPMLLLWGAELTQIYNDGFALLAGNKHPSAFGHPAHLTWPELMDFTDPIYRAVLNGQVRTFSEQRFSLQRTNGSEYDLWLDLTYSPIRNERGDVAGILVTAIETNERRRIALELQQR”, the protein production is reported as “failed”.
In the case of “IEGLFIFDRNQKCVYANHIALNLFGYTLEEVHSKSILDFIALGFRNKVKRFSQNRDQPPYEVLGIKNDGSLFPIMIRGKAIELG”, the protein production is reported as “failed”.
With “IFRVLDDVDTAVFNRVGTLTDGEMTVETVTADKGEDPELVLRVAGALAMESHHAISKALVKASREARDTGAGGEDVPHWIEVGNVEITEAGSFQATIELPLIKPSGEKIMRTTEALLWRPRSMTEVREHLSPRLVAAATSGGAPLIVRWKGKDRGVITLSDHVRSDSSDAIIAIEEQGIETMMLSRDTYPVARRYADSLGITHVLAGIAPGKKAQVVRAVHTRGSTVAMIGDESVMDCLKVADVGVLMGVDRPSDLRDDSDDPAADVVVMREEVMSVPTLFKLARRYAKLVNGNIALAWIYNGVAM” the protein production was “failed”.
For “IHYAGKILQERLVNPPSLMELAREIGINDHKLKVGFRQVFKTTVFGYLHDQRIERSRQLLESGEMTVTGAASAVGFANRGHFAAAFRRKFGINPSLYARQRKL”, the protein production was “failed”.
For “IKSISKDYFDYLQTESKFIPLENETIEFYSPIVDYFGDSISVNISFSGDRYKLTDHGETLWNMEQLGIDLTSNKKQKKYQLLNNIVQNYSLVIENKHINFYTNRINLSQAIHDYVLAISEISYLGILKKENIKSLFKDEVMQYFLSNRKIYPNIFPEFKVEGKSKLIHSFEAVFPGEATEYVKTIKRIDKNNAKNVLFDWNDVEIHRNKNFDSNARLNIITEQQDDISEAVSTMLSQYNVEVFSFENKKQLEEKF”, the protein production was “failed”.
In the case of “IKVGKAKLLNQVLVNLPTSISQQTIAETDGDSAGSDSFPVGRTHHRWYLCHFGQSLIHVIQVVIGYFIMLAVMSYNTWIFLGVVLGSAVGYYLAYPLLSTA”, the protein production is reported as “not failed”.
With “ILFSVVIGSFTPAHPIASETNPKVENAKDAPEIEPFSEQAVEELHRQKKPLFIYFSADWCLTCKVNEKMAIDRDSTRQAFRQKGIVTLHGDWTNGDPEITHFLSKMHRSGIPLYLYYPADGEIQI” the protein production was “failed”.
In the case of “IMAKTAKVAVSQIVEHPALDATRQGLLDGLKAKGYEEGKNLEFDYKTAQGNPAIAVQIARQFVGENPDVLVGIATPTAQALVSATKTIPIVFTAVTDPVGAKLVKQLEQPGKNVTGLSDLSPVEQHVELIKEILPNVKSIGVVYNPGEANAVSLMELLKLSAAKHGIKLVEATALKSADVQSATQAIAEKSDVIYALIDNTVASAIEGMIVAANQAKTPVFGAATSYVERGAIASLGFDYYQIGVQTADYVAAILEGKEPGSLDVQVAKGSDLVINKTAAEQLGITIPEAVLARATSTK”, the protein production is reported as “not failed”.
With “INVRLKFLNDTEELAVARPEDTVGTLKSKYFPGQESQMKLIYQGRLLQDPARTLSSLNITNNCVIHCHRSPPGAAVSGPSAS” the protein production was “not failed”.
In the case of “IPELKDHLRIFRPRKLTLKGYRQHWVVFKETTLSYYKSQDEAPGDPIQQLNLKGCEVVPDVNVSGQKFCIKLLVPSPEGMSEIYLRCQDEQQYARWMAGCRLASKGRTMADSSYTSEVQAILAFLSLQRT”, the protein production is reported as “not failed”.
In the case of “IPLKSIEVPFEGELLPGYAIISEDKAQDTLIVVGGGDTSREDLFYMLGYSGWEHDYNVLMVDLPGQGKNPNQGLHFEVDARAAISAILDWYQAPTEKIAIAGFSGGGYFTAQAVEKDKRIKAWIASTPIYDVAEVFRISFSTALKAPKTILKWGSKLVTSVNKVAEVNLNKYAWQFGQVDFITSVNEVLEQAQIVDYNKIDVPSLFLVGAGEDSELMRQSQVLYDNFKQRGIDVTLRKFSSESGADAHCQVNNFRLMHYQVFEWLNHIFKKKD”, the protein production is reported as “failed”.
For “IPVFNITSNRGRLLQQISVGDIWGVGRQWANKLISRGIHTAYDLAMTNPHLLKKCFNAVLMRTAMELQGIACGG”, the protein production was “failed”.
For “IQHATASLIQTNTDQELLVVDVTPSFASLWLVPNINDFHQRHPNIRVKILTGDGAVKNIHGESDLHVRCLPLSTHYEYSQLLCEETLLLIGNTNLPKLSDNQAISHYPFIPQTTRPQLWEQFKQENDLECPITYHSVGFEHFYLACEAVRMEKGLALLPDFMAQFSILRGDIQHIGNLKLHSGYGYYVVIPNFRLTSRKVALFHDWLKDKLTHHT”, the protein production was “not failed”.
With “IQNNEATLRCIVENLPIFFGMRTINFSNWYYINPSFESLTGYTPDEMYEDPLLWQKIHREEYAENLEQARPNLGEWTIFSMEKKDGTQIWAQTVEFLVDDLSDTARVVVFGQDITDIKRAEIETLRSLVKERELNEAKSQFVDIVSHEFRTPLTSIIGF” the protein production was “failed”.
For “ISLKYTAARLHEKGVLLEIEDLQVNQFKNVIFEISPTEEVGDFEVKAKFMGVQMETFMLHYQDLLQLQYEGVAVMKLFDRAKVNVNLLIFLLNKKFYGK”, the protein production was “not failed”.
With “ITERHLIEESLKESQQRWEFALEGSGDGIWDWGVMEDRLFLSARLQEMFGYARGEMGESMEQASSFILKEDRARVLSTLYRFLKEGEGQYADEFRVNCKEGGYRWIFSRGMVVKRNAQGEAARMIGIFTDI” the protein production was “failed”.
For “IVAQGEDFVVSGALNLSLIRERTGFQAKATEDYQTLAGLVMSLLDRLPSTGDSLSWQGWNLQVVGVEERRVTRVLLQKQPAASAGK”, the protein production was “failed”.
With “IVMADWLKIRGTLKSWTKLWCVLKPGVLLIYKTQKNGQWVGTVLLNACEIIERPSKKDGFCFKLFHPLEQSIWAVKGPKGEAVGSITQPLPSSYLIIRATSESDGRCWMDALELALK” the protein production was “not failed”.
With “IVPDAQDLGKSYGIRPSFIIAQAALDSDFGEKILANKYHNLFGLLAEPGTPSITLNDSSTGKKQEKQFTHYKSWKYSMYDYLAHIKSGATGKKDSYTIMVSVKNPKTLVQKLQDSGFDNDKKYAKKMTEIIDLYDLTRYDK” the protein production was “failed”.
In the case of “KALGSKEIPKGAENCLEGLIFVITGVLESIERDEAKSLIERYGGKVTGNVSKKTNYLVMGRDSGQSKSDKAAALGTKIIDEDGLLNLIRTMPGKKSKYEIAVETE”, the protein production is reported as “not failed”.
In the case of “KAPLDEIADDSFWSDETLVKYYVNDLYSEISVDGLQLQENRSDNSVSAQRDKYRASWFKFNYDMVSASDPQDDDVWEDYYVKVRKCNRFFERIGTSTIEESEKSRLTGEVHFLRAMFYFEMVKRYGGVILLDKVLTMEDNWEIPRSSEKECYDFILEDLKKATEMLPASYGSREKGRATKGAAYALKSRVELYDKRYEDVIKSCAEVYKLGYELVDGTTPEKYRSIWWTTNKDNKEIIFDVQYKSPDVYNNMMVCNMVTYINDKYGDRGWGGLGPTQELIDAFEMADGTPATQYSQAPADQVFDINTCGIYEGREPRFYANIVFHGSQIFFNADKGAVTVDRYLMDTPDKGDGSLTGYNVWKWIDYDNYNYPYAGAGSPDFSTNWIILRYAEIYLNDAEARLETGDVEGARKAVNMIRQRVGLPDLTESDPEKLRELIRKERRIEFAFEEQRFYDVRRWKIGPETQTTLHGVRFVSPTEFKVTKTDIRTWNDRLYLTPVPHDEIVRSSVLKQNLGY”, the protein production is reported as “not failed”.
With “KDDDNVETGAFDPSKPVAISDFTPKEGGAYQKLLIYGENFGTDVSKVKVKIGGKDAIVINVKSTYVYCFVPSGAFSGEIEITVGEGENAVTTTASTTFSYEKKMVVGTLCGYRNNRDDQGWRDGPFDGPEGVKCCGFSDNGRLAFDPLNKDHLYICYDGHKAIQLIDLKNRMLSSPLNINTIPTNRIRSIAFNKKIEGYADEAEYMIVAIDYDGKGDESPSVYIIKRNADGTFDDRSDIQLIAAYKQCNGATIHPINGELYFNSYEKGQVFRLDLVDYFKTIKNGGSWDPIVKNNPNTFKQLFTIADPSWEFQIFIHPTGKYAYFGVINNHYFMRSDYDEIKKEFITPYNFVGGYKQSGYRDDVGTEARMNNPCQGVFVKNPDYTGEEEYDFYFVDRLNFCVRKVTPEGIVSTYAGRGASTSLADGNQWGTDDGDLREVARFRDVSGLVYDDVKEMFYVHDQVGHTIRTISMEQEENVAGDENIPEDESTVESNE” the protein production was “not failed”.
With “KELIQNIIEESYTDSQFTLSVLSEKLDLSSGYLSIMFKKNFGIPFQDYLLQKRMEKAKLLLLTTELKNYEIAEQVGFEDVNYFITKFKKYYQITPKQYRE” the protein production was “not failed”.
In the case of “KFDSDIDEVVYGSRLIGSDPDLVLHGGGNTSVKTTERDHAGRIISVLRVKNSGSNLGTIDSRGFTGIRMDDALAAAKIDKMTDEAMVDYLKKSMVNPSEPSPSVETFLHAFLPYKFVMHSHADAILSITNTDLPSDQIAKILGNVVVLPYIPPGFTLAKEVMNCFKKGIDGIVLRKHGLLTFGDTGKEAYDRHINIVSRAENFIREKTDGK”, the protein production is reported as “not failed”.

Reference: a protein production outcome set (Wang et al. 2014)
